In assay [1] the target is Bin1 SH3 domain (513-593) (human) (UniProt O00499). Put plainly: ITC; 450 or 300 uM NS5A PRR peptide (syringe) titrated to 30 uM ASPP CTD or SH3 domain (cell), 12 °C, 25 mM HEPES pH 7.5, 150 mM NaCl, 500 uM TCEP; 25 steps of 10 ul; AB hetero association model (SEDPHAT). For orientation: In ITC the heat of successive injections is recorded.
The target in another assay is PP1α (Homo sapiens) (UniProt P62136). As to conditions: cited from earlier work.
PP1α (Homo sapiens), sequence (P62136 2-330): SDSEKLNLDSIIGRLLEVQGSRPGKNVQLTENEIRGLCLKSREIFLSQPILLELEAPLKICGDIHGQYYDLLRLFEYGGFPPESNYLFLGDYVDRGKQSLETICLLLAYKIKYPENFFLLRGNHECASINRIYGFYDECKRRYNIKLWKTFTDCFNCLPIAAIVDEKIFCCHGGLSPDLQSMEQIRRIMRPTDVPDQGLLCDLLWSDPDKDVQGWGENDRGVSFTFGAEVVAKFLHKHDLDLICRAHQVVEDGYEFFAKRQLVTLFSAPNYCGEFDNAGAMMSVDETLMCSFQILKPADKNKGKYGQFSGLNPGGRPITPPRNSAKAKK

ASPP2 SH3, sequence (Q13625 1054-1122): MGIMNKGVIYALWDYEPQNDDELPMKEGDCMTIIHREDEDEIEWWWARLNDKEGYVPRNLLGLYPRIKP
Bin1 SH3 domain (513-593) (human), sequence (O00499 513-593): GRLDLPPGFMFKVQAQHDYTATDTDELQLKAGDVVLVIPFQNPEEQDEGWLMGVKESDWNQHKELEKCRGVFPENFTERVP

What is called Kd is a measure of binding affinity in units of concentration. The substance “HCV [1a.1] NS5A PRR peptide (peptide; other documents disagree on this pair)” returned a Kd in assay [1] of 30.3 nM. For ASPP2 SH3 (from UniProt Q13625), the dissociation constant (Kd) with PP1α (Homo sapiens) is 140 nM.
